From publication PMC9590138

Molecular target: recombinant soluble CD146 (UniProt P43121)
Assay: ELISA; in-house ELISA: binding of αvβ3 to rsCD146, dissociation constant estimated; methods in Additional file 1, not shown

integrin αvβ3 (protein used in the in-house ELISA) (from UniProt P06756 31-1048; P05106 27-788) (receptor)
Kd: 1.8 nM
